pKd: −log10 of the molar value.

The test system of data set [1] is Topo IV. In words: EMSA. The following applies: Topo IV alone; stated as bound poorly; 1 mM spermidine, 30 mM potassium glutamate, 10 mM DTT, 6 mM MgCl2, 10% glycerol, pH 7.4, 15 min at RT; 4% native PAGE (plasmid: 0.8% agarose, 0.5x TAE, 4 C). Background: In EMSA bound probe runs differently from free probe, usually more slowly.
Data set [2] concerns Topo IV;XerC;XerD (Escherichia coli?;Escherichia coli?;Escherichia coli?). Nature of the data set: EMSA (agarose). The note with it: 50 nM XerCD; migration delay seen with 40 nM Topo IV; 1 mM spermidine, 30 mM potassium glutamate, 10 mM DTT, 6 mM MgCl2, 10% glycerol, pH 7.4, 15 min at RT; 4% native PAGE (plasmid: 0.8% agarose, 0.5x TAE, 4 C).
Data set [3] concerns Topo IV. In words: EMSA (agarose). The note with it: no XerCD; 200 nM Topo IV required for migration delay; 1 mM spermidine, 30 mM potassium glutamate, 10 mM DTT, 6 mM MgCl2, 10% glycerol, pH 7.4, 15 min at RT; 4% native PAGE (plasmid: 0.8% agarose, 0.5x TAE, 4 C).

On to dif probe, 250 bp, for which the negative-log Kd (pKd) with Topo IV [1] is < 7.00.
Turning to “negatively supercoiled plasmid containing dif”, the binding worked out at 40 nM in data set [2] and 200 nM in the data set with Topo IV [3].

By pKd is commonly meant the Kd on a negative log10 scale, so that one unit is a factor of ten. Lower therefore signals a large Kd.

The values are drawn from PMC4865107.
